Source: article PMC3043101

Target: invariant chain (Ii), endogenous in Raji cells (human (endogenous in Raji)) (UniProt P04233)
Assay: cross-linking; pooled sucrose gradient fractions 7/8 or 14/15 of Raji cell lysate; increasing DSP (up to 200 µg/ml), 2 h on ice; non-reducing SDS-PAGE; western blot for DRα (TAL-1B5) or Ii (Bu43)

invariant chain (Ii), endogenous in Raji cells (from UniProt P04233 1-296) (natural protein)
stoichiometry N: 3
